{"source": "paper PMC3433420", "experiment_in_all_cases": "peptide or protein array; SH2/PTB proteins spotted on aldehyde slides, rhodamine peptide titrated in buffer B (20 mM HEPES, 100 mM KCl, 0.1% Tween-20, 5 mM DTT, pH 7.8), 1 h at room temperature; replicate assays", "key": {"[1]": {"target": "ABL2 SH2 domain (human) (UniProt P42684)", "sequence (P42684 173-263)": "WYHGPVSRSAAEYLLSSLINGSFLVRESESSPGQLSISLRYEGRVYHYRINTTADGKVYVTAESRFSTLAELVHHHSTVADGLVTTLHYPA"}, "[2]": {"target": "BCAR3 SH2 domain (human) (UniProt O75815)", "sequence (O75815 154-253)": "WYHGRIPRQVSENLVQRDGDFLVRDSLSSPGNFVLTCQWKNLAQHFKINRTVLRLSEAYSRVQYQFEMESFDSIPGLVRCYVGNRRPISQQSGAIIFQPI"}, "[3]": {"target": "FGR SH2 domain (human) (UniProt P09769)"}, "[4]": {"target": "GRAP2 SH2 domain (human) (UniProt O75791)", "sequence (O75791 58-149)": "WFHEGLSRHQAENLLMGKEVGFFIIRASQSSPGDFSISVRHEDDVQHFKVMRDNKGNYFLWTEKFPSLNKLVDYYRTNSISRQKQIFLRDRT"}, "[5]": {"target": "GRB10 SH2 domain (human) (UniProt Q13322)", "sequence (Q13322 493-574)": "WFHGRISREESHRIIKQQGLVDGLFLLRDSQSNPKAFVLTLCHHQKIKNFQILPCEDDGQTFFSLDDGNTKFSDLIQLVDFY"}, "[6]": {"target": "GRB7 SH2 domain (human) (UniProt Q14451)", "sequence (Q14451 431-527)": "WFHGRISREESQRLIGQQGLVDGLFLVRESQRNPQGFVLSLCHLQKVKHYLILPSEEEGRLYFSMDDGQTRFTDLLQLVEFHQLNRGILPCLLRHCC"}, "[7]": {"target": "LYN SH2 domain (human) (UniProt P07948)", "sequence (P07948 129-226)": "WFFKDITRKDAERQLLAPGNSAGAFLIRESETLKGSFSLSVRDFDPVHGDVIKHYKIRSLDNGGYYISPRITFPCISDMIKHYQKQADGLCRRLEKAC"}, "[8]": {"target": "PLCG2 tandem SH2 domains (human)"}, "[9]": {"target": "PTPN11 tandem SH2 domains (human)"}, "[10]": {"target": "RASA1 N-terminal SH2 domain (human) (UniProt P20936)", "sequence (P20936 whole entry, the tested form may be a part)": "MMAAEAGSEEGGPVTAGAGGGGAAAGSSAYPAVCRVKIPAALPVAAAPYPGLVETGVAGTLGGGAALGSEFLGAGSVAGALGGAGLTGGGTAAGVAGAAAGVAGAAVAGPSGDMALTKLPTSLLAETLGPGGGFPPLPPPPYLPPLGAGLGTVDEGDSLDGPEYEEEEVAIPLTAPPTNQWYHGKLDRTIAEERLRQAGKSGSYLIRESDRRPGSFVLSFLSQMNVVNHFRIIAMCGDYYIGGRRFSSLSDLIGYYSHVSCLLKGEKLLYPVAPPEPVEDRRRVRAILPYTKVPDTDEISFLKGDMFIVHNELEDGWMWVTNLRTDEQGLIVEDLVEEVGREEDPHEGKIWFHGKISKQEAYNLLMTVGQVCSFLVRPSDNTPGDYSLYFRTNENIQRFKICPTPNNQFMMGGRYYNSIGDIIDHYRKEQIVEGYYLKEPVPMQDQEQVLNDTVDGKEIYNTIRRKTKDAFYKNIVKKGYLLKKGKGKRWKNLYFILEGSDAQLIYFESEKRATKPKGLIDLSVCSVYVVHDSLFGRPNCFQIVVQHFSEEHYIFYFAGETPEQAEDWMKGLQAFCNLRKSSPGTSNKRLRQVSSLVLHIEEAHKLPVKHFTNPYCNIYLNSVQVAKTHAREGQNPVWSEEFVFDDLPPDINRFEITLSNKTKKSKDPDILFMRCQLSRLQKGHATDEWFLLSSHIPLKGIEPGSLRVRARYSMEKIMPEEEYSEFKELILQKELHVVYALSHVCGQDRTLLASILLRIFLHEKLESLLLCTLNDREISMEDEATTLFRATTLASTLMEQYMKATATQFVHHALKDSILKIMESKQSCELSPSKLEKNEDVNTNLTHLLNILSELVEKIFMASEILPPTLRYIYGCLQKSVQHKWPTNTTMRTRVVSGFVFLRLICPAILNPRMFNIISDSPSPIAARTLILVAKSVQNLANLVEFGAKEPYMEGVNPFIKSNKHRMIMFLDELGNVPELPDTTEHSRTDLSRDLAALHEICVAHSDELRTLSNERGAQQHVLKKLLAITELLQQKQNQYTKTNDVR"}, "[11]": {"target": "SH2B3 SH2 domain (human) (UniProt Q9UQQ2)", "sequence (Q9UQQ2 364-462)": "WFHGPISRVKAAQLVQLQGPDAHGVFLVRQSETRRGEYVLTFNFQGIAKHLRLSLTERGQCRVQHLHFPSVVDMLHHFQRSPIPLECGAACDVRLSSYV"}, "[12]": {"target": "SH2D1B SH2 domain (human) (UniProt O14796)", "sequence (O14796 5-101)": "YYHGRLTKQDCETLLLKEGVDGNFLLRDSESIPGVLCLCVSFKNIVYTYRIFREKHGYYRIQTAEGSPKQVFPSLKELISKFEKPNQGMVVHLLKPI"}, "[13]": {"target": "SH2D3C SH2 domain (human) (UniProt Q8N5H7)", "sequence (Q8N5H7 220-319)": "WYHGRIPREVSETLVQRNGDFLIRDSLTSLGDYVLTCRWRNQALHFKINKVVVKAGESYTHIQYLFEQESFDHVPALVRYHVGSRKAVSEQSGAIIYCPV"}, "[14]": {"target": "SH3BP2 SH2 domain (human) (UniProt P78314)", "sequence (P78314 457-555)": "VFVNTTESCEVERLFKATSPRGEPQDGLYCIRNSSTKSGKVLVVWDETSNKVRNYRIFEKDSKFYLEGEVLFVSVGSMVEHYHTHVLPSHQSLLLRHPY"}, "[15]": {"target": "SYK C-terminal SH2 domain (human)"}, "[16]": {"target": "SYK N-terminal SH2 domain (human)"}, "[17]": {"target": "SYK tandem SH2 domains (human)"}, "[18]": {"target": "TNS3 SH2 domain (human) (UniProt Q68CZ2)", "sequence (Q68CZ2 1172-1282)": "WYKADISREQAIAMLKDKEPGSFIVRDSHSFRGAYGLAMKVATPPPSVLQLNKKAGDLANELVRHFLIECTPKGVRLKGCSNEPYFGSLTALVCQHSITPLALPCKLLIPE"}, "[19]": {"target": "YES1 SH2 domain (human) (UniProt P07947)", "sequence (P07947 158-255)": "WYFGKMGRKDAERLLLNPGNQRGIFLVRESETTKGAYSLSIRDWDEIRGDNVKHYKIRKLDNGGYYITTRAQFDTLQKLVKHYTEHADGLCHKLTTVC"}, "[20]": {"target": "ZAP70 C-terminal SH2 domain (human) (UniProt P43403)", "sequence (P43403 whole entry, the tested form may be a part)": "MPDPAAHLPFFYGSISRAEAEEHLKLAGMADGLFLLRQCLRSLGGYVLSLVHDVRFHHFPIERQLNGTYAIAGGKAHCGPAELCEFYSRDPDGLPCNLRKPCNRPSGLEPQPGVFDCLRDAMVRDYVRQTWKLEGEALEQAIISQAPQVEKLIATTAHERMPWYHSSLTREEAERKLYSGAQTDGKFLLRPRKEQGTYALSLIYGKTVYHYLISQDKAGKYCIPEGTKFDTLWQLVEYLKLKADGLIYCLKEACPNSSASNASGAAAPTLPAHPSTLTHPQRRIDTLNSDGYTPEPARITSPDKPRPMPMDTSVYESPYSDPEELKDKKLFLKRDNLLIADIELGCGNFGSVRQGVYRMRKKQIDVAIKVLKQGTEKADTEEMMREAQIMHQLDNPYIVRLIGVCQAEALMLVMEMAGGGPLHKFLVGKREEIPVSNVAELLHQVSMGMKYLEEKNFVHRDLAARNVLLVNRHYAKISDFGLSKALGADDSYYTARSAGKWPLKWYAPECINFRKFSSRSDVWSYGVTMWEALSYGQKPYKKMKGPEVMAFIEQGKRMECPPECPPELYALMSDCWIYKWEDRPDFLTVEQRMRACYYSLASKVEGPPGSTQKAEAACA"}}, "note": "Several values for one entry are separate records, joined by “and”; a condition that tells them apart may be missing. Identical values can stand only once."}
{"substance": "ErbB4 pY1262 phosphopeptide, rhodamine-labelled, for protein microarrays", "values": [{"measurement": "Kd", "setting": "[1]", "result": "60.6 nM and 306 nM"}, {"measurement": "Kd", "setting": "[2]", "result": "610 nM and 1170 nM"}, {"measurement": "Kd", "setting": "[3]", "result": "201 nM and 401 nM"}, {"measurement": "Kd", "setting": "[4]", "result": "808 nM and 1360 nM"}, {"measurement": "Kd", "setting": "[5]", "result": 1500, "unit": "nM"}, {"measurement": "Kd", "setting": "[6]", "result": 341, "unit": "nM"}, {"measurement": "Kd", "setting": "[7]", "result": "201 nM and 579 nM"}, {"measurement": "Kd", "setting": "[8]", "result": "126 nM and 381 nM"}, {"measurement": "Kd", "setting": "[9]", "result": 536, "unit": "nM"}, {"measurement": "Kd", "setting": "[10]", "result": "299 nM and 596 nM"}, {"measurement": "Kd", "setting": "[11]", "result": 1630, "unit": "nM"}, {"measurement": "Kd", "setting": "[12]", "result": 612, "unit": "nM"}, {"measurement": "Kd", "setting": "[13]", "result": "1440 nM and 1160 nM"}, {"measurement": "Kd", "setting": "[14]", "result": "403 nM and 1470 nM"}, {"measurement": "Kd", "setting": "[15]", "result": 408, "unit": "nM"}, {"measurement": "Kd", "setting": "[16]", "result": "319 nM and 593 nM"}, {"measurement": "Kd", "setting": "[17]", "result": "164 nM and 649 nM"}, {"measurement": "Kd", "setting": "[18]", "result": "373 nM and 742 nM"}, {"measurement": "Kd", "setting": "[19]", "result": "111 nM and 329 nM"}, {"measurement": "Kd", "setting": "[20]", "result": 588, "unit": "nM"}]}
